Reference: publication PMC4403821

Experiments:
[1] = molecular target: ORF74-ST/A (Kaposi's sarcoma-associated herpesvirus (KSHV)) (UniProt Q98146)
[2] = molecular target: ORF74-ST/A (Kaposi's sarcoma-associated herpesvirus (KSHV)) (UniProt Q98146); assay: radioligand binding; whole transfected HEK293T cells, 100 pM ^125I-CXCL10 with increasing unlabeled CXCL10, 3h at 4°C, 50 mM HEPES pH 7.4, 1 mM CaCl2, 5 mM MgCl2, 0.5% BSA; washes with 0.5 M NaCl; Ki from IC50 by Cheng and Prusoff
^125I-CXCL8 = assay: radioligand binding (125I-CXCL8 homologous competition) on intact HEK293T cells; conditions: point at the lowest unlabeled CXCL8 concentration, log [CXCL8] = -11 M; parent: est. 100; read off a plot

Work on CXCL8 (ligand) yielded a PLC activation (InsP accumulation) in HEK293T, pEC50 [1] greater than 7.
“CXCL10 (from UniProt P02778 22-98) (ligand)” gave an inhibition of constitutive PLC activation (InsP accumulation) in HEK293T, pEC50 [1] of 8 and a pKi [2] of 8.4.
For “WT-ORF74 (from UniProt Q98146) S315A; S319A; S331A; S335A; S338A; T341A; T342A”, the percent of parent (% of specific binding of WT-ORF74) (^125I-CXCL8) was 3.
